Assay results published in patent US11306331B2, “Processes for the production of hydroxycinnamic acids using polypeptides having tyrosine ammonia lyase activity” (CysBio ApS, priority 2014, dated 2022).

Assays:
[1] = tested on: L. lactis NZ9000ΔldhΔldhB; assay: Specific pHCA and CA productivity of L. lactis strains expressing TAL/PAL enzymes in CDM; type: cell-based, Lactococcus lactis
From the text: The synthetic RsXALI (protein GI 129592) and RmXALI (protein GI 126464011) genes, codon optimized for Lactococcus lactis (GeneArt), were cloned into the nisin inducible expression vector pNZ8048 (Kuipers et al., 1998) as follows: RsXALI (SEQ ID NO: 56) and RmXALI (SEQ ID NO: 57) genes and the vector were PCR amplified using the primers listed in Table 7, and were assembled in a single-tube isothermal reaction using the Gibson Assembly Master Mix (New England Biolabs). Reaction products were ethanol-precipitated and suspended in double distilled water before transformation into L. lactis by electroporation as described by Holo and Nes (1995). The synthetic genes encoding SeSam8, R_XAL, HaXAL1 and FjXAL described in a previous example above were amplified by PCR using the primer pairs listed in Table 1, digested with specific restriction enzymes, and cloned in-between the NcoI and XbaI restriction sites of pNZ8048. The plasmids were obtained and maintained in L. lactis NZ9000 (Kuipers et al., 1998) and the gene sequences of the different constructs were verified by sequencing.
To assess pHCA production, TAL-expression vectors were transformed into a strain derived from NZ9000, but with deletion of the genes Idh and dhB (NZ9000ΔldhΔldhB). A control strain was also constructed by transformation of NZ9000ΔldhΔldhB with empty expression vector pNZ8048.
For molecular biology procedures, L. lactis strains were cultivated as batch cultures (flasks) without aeration in M17 medium (Difco™, USA) supplemented with 0.5% glucose (w/v) at 30° C. To assess pHCA production, strains were grown as static cultures in chemically defined medium (CDM; Poolman and Konings, 1988) containing 1% glucose (wt/vol) without pH control (initial pH 6.5 or 7.0) and supplemented with 1.7 or 3.7 mM L-tyrosine. Plasmid selection was achieved by addition of 5 μg mL^−1 chloramphenicol to the growth medium. Growth was monitored by measuring OD600. For heterologous expression of cloned tyrosine ammonia lyases, L. lactis strains were grown in CDM and nisin (1.5 μg L^−1) was added at an OD600 of 0.3-0.4. Samples (1 mL) of cultures were collected at different points during growth; centrifuged (16,100×g, 10 min, 4° C.) and the supernatants stored at −20° C. until analysis by HPLC as described in a previous example above. […] The first six columns are results from media containing 1.7 mM tyrosine. The seventh and ninth columns represent samples from strains grown in media containing 3.7 mM tyrosine, and the eighth and ninth columns are data from media with 68.5 mM 3-(N-morpholino)propanesulfonic acid (MOPS) and initial pH adjusted to 7.0 rather than 6.5.

[2] = substrate: N[C@@H](Cc1ccc(O)cc1)C(=O)O; assay: In vitro kinetics of purified His-tagged FjXAL (tyrosine/phenylalanine ammonia lyase activity, absorbance at 315/295 nm); type: biochemical, Flavobacterium johnsoniae; conditions: other: FjXAL, 30° C, 1.56 μM to 200 μM tyrosine or 193 μM to 25 mM phenylalanine, pH 7.5
Protocol: (§1) The tyrosine ammonia lyase activity may for instance be determined in accordance to the following method: Enzymatic assays are performed in 200 μL volumes in wells in a UV transparent 96-well plate, by following the increase in absorbance at 315 nm (pHCA) using spectrophotometry or HPLC with UV detection. The reaction mixtures contain 2 μg of purified protein and are initiated by adding 1 mM tyrosine or 6 mM after equilibration to 30° C. The enzymatic activity is calculated as U/g, where U is defined as μmol substrate converted per minute. Negative controls contain no purified protein. Kinetic constants Km and vmax are determined from assays containing 1.56 μM to 200 μM tyrosine. See also Kyndt et al. (2002).
(§2) Four of the enzymes were further purified by His-tag purification as follows. A DNA linker (5′ phosphorylated oligonucleotides CBJP559 and CBJP560, Table 5) was inserted in place of the sequence between the NdeI and BgIII site in plasmid pCDFDuet-1. This would result in the addition of the amino acids MAHHHHHHENLYFQ (SEQ ID NO: 11) to the N-terminal end of the polypeptides. The resulting plasmid was amplified with primers CBJP575 and CBJP576 (table 5) and the genes were amplified and combined using the Gibson reaction (New England Biolabs). The PCR amplification used the same reverse primers as in example 1, but the forward primers matching the His-tag site of the linker (Table 5). Plasmids carrying the genes (e.g. FjXAL, FIG. 4) were transformed into electrocompetent E. coli BL21(DE3)pLysS cells (Life Technologies) and selected on LB plates containing 50 ug/mL streptomycin.
(§3) Strains expressing His-tagged versions of the enzymes were grown in LB media overnight at 37° C. and diluted into fresh LB media with 1 mM IPTG and growth was propagated overnight (approximately 18 h) at 30° C. Cells were harvested by centrifugation at 8000 rpm for 8 minutes, and disrupted by shearing into a buffer (50 mM Tris-HCl, 10 mM imidazole, 500 mM NaCl, 10% glycerol, pH 7.5). The homogenate was clarified by centrifugation at 10000 g for 10 min at 4° C., and the supernatant was loaded onto Ni2+-NTA resin column on an Äkta Pure system connected to a F9-C fraction collector (GE). Finally the fractions containing the purified polypeptide was dialyzed overnight against a buffer containing 50 mM Tris-HCl pH 7.5, 150 mM NaCl and 10% glycerol, flash-frozen in liquid nitrogen and stored at −80° C.
(§4) Enzymatic assays were performed in 200 μL volumes in wells in a UV transparent 96-well plate, by following the increase in absorbance at 315 nm (pHCA) or 295 nm (CA). […] The enzymatic activity was calculated as U/g, where U is defined as μmol substrate converted per minute.

[3] = substrate: N[C@@H](Cc1ccccc1)C(=O)O; assay: as above; type: biochemical, Flavobacterium johnsoniae; conditions: other: FjXAL, 30° C, 1.56 μM to 200 μM tyrosine or 193 μM to 25 mM phenylalanine, pH 7.5
Protocol: as §1, §2, §3, §4

B1: Flavobacterium johnsoniae FjXAL tyrosine ammonia lyase (Protein GI 146298870), SEQ ID NO: 1, His-tagged (N-terminal tag SEQ ID NO: 11) (Flavobacterium … (protein)
chain: MNTINEYLSLEEFEAIIFGNQKVTISDVVVNRVNESFNFLKEFSGNKVIYGVNTGFGPMAQYRIKESDQIQLQYNLIRSHSSGTGKPLSPVCAKAAILARLNTLSLGNSGVHPSVINLMSELINKDITPLIFEHGGVGASGDLVQLSHLALVLIGEGEVFYKGERRPTPEVFEIEGLKPIQVEIREGLALINGTSVMTGIGVVNVYHAKKLLDWSLKSSCAINELVQAYDDHFSAELNQTKRHKGQQEIALKMRQNLSDSTLIRKREDHLYSGENTEEIFKEKVQEYYSLRCVPQILGPVLETINNVASILEDEFNSANDNPIIDVKNQHVYHGGNFHGDYISLEMDKLKIVITKLTMLAERQLNYLLNSKINELLPPFVNLGTLGFNFGMQGVQFTATSTTAESQMLSNPMYVHSIPNNNDNQDIVSMGTNSAVITSKVIENAFEVLAIEMITIVQAIDYLGQKDKISSVSKKWYDEIRNIIPTFKEDQVMYPFVQKVKDHLINN
B1 was tested, and the “increase in specific production of pHCA over RmXALI, the second-best enzyme” value ([1]; CDM, 1.7 mM tyrosine) was “five-fold increase”, the “Specific production of pHCA” value ([1]; CDM, 1.7 mM tyrosine, initial pH 6.5) was 15 μM OD600^−1 and the “specific productivity of pHCA” value ([1]; tyrosine increased from 1.7 mM to 3.7 mM and/or pH increased from 6.5 to 7.0) was 24 μMD600^−1. The Km [2] was 0.0057 mM, the Km [3] was 6.6 mM and the kcat [3] was 0.00817 s⁻¹. The kcat/Km [3] was 1.23 M⁻¹ s⁻¹.
